Measured values as given in the supplement of paper PMC9170038.

Tested on: MS2 coat protein
Assay: apparent KD of MS2 coat protein; designed switch direction (-1 OFF switch, 1 ON switch): -1; higher = weaker reporter binding
Method in brief: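 Stalled E. coli RNA polymerase transcribed designed RNA switches on Illumina chips, which were then titrated with SNAP-549-labelled MS2 coat protein, doubling from 0.7 or 1.5 nM to 3 µM. Steps lasted from 0.8–1.5 h at the lowest concentration to 10–20 min at the highest. The apparent KD is each design's median over clusters of curve-fitted normalised fluorescence.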

[1] = input ligand: microRNA oligo, concentration not stated
[2] = Eterna round: R95, input ligand: FMN 200 uM
[3] = Eterna round: R95, input ligand: microRNA oligo, concentration not stated
[4] = Eterna round: R95, input ligand: none

Sequence | apparent KD of MS2 coat protein (input ligand: FMN 200 uM) [µM] | apparent KD of MS2 coat protein [1] [µM] | apparent KD of MS2 coat protein (input ligand: none) [µM] | apparent KD of MS2 coat protein [2] [µM] | apparent KD of MS2 coat protein [3] [µM] | apparent KD of MS2 coat protein [4] [µM]
CAGGAUAGAGGAUAUACAUAGAUACAGAUUCGUGUGAUCCUACAUGAGGAUCACCCAUGUAGAAGGCUAUCCUG [Fiskers Ex 2 - 23] (Eterna round: R96, puzzle: Exclusion 2) | 0.082 | 0.392 | 0.587 |  |  | 
GUCGUACAUGAGGAUCACCCAUGUGAGGAUAUAGGUAGCAACCAGAAAUGGUUGCUACCUAGAAGGCGCAUGAU [Malcxlusion 10 - Jieux - Exclusion 1] (Eterna round: R97, puzzle: Exclusion 1) | 0.529 |  | 0.104 |  |  | 
UAUGGUUAAGUCAGGAUAUGCUCGUAGAGGUCUAUGCAGAAGGGACAUGAGGAUCACCCAUGUAAAGUCGUGUU [Ex4 #70] (Eterna round: R97, puzzle: Brourd's mod of Exclusion 4) | 0.0515 |  | 0.0251 |  |  | 
AGAAAGCAAGGAUAUACGAGGAGAAGGAGGAAAGUUAAAGGACAUGAGGAUCACCCAUGUAGAAGGUGCGAGAA [JR_Exclu2_Sub042] (puzzle: Exclusion 2) |  |  |  | 0.0333 | 0.0589 | 0.0558
AAGACACAUGAGGAUCACCCAUGUGAGGAUAUUUGAUGCUGAGCGUAAGCUUAGUAUCAGAGAAGGUACAUAGG [Salishxclusion 10 - Jieux - Exclusion 1] (Eterna round: R97, puzzle: Exclusion 1) | 0.105 |  | 0.0589 |  |  | 
ACAUUUUAUCCAUGAUAUCACAUGAGGAUCACCCAUGUUAAGGCGAUUUUGAUUUGUAAGCUUUGUGCUCGACUUAU [JR_STOV1_Sub054] (Eterna round: R97, puzzle: Sensor, turn-off variant 1) | 0.0356 |  | 0.0421 |  |  | 
GUGUAGUCAGGAUAUACAUAGGAAGAGAAGAGAAGAUAAGUACAUGAGGAUCACCCAUGUAGAAGGGACAGUGU [Excluse me!! 7 - Jieux - Exclusion 2] (puzzle: Exclusion 2) |  |  |  |  | 0.0321 | 
ACAAGCUUUUAGAUUUUCAACAUGAGGAUCACCCAUGUUCGUCUUAUGCUAGUGCGAGUGCGGUGUACUCGUAUUAG [JL TOV1 3.81 sellena mod] (Eterna round: R97, puzzle: Sensor, turn-off variant 1) | 0.0182 |  | 0.0168 |  |  | 
GUGCCGCGAGGAUAUACAGACGGGUCCAGUGCGUGUCUCGGACUUGAGGAUCACCCAAGUAGAAGGCGUCUCAG [salish99_ex2_r4_614] (Eterna round: R97, puzzle: Exclusion 2) | 0.0167 |  | 0.031 |  |  | 
AAUUAGUAUGUGAGGAUAUUGAUGUAAUGACGGUUUAAGAAGGCACAUGAGGAUCACCCAUGUAAAUGAUCACG [JR_BMEx4_Sub008] (Eterna round: R97, puzzle: Brourd's mod of Exclusion 4) | 0.0744 |  | 0.0377 |  |  | 
GAGAAAUUAUAGGAUAUCGUAUGGAUAAUUUAACGAGAAGGAUGAACAUGAGGAUCACCCAUGUGGUAUCAUGG [JL-ex6-3.13] (puzzle: Exclusion 6) |  |  |  | 0.262 | 0.327 | 0.331
ACACCUCACGUCAGGAUAUCUAUCUCGAGUGAGGAAGAGAAGGGACAUGAGGAUCACCCAUGUAUAGAAAGAAU [Usissodi] (Eterna round: R97, puzzle: Brourd's mod of Exclusion 4) | 0.125 |  | 0.0272 |  |  | 
AAUAAUAAGGAGGAUAUCGUAUCGGAAACGAUACGAGAAGGUCUAACAUGAGGAUCACCCAUGUUCCUCAAUAA [Fiskers Ex 6 - 1] (puzzle: Exclusion 6) |  |  |  |  | 0.0336 | 
UGUUGGUACGUAGGAUAUCCACCAACAGGUGGAAGGAUAUGUACGCAGAAGGUUCGCCAACAGGCGGAGAAGGACGUGGUAACU [pwkr exNG2 2xF7 2xFMN.29] (Eterna round: R96, puzzle: Exclusion NG 2) | 0.0346 | 0.0738 | 0.169 |  |  | 
GCUGAAGGGUCGAUUACCAACAUGAGGAUCACCCAUGUUCGGAAUAAUUACAGGUUCGCUCGUCUCGAUGAAAGUCC [Eternabot (L1) Solution 19] (Eterna round: R97, puzzle: Sensor, turn-off variant 1) | 0.0193 |  | 0.0217 |  |  | 
CGAUGAGGAGUGAGGAUAUCGUGUUCGAAAGAACGUGAGAAGGCACAUGAGGAUCACCCAUGUGAUUCUUGUCG [Omei Ex4B A18] (Eterna round: R97, puzzle: Brourd's mod of Exclusion 4) | 0.0776 |  | 0.0222 |  |  | 
AGAUGGCGAGGAUAUACAUGAGGAUCACCCAUGUGAGAAGAGAAAGUGAGGAAGAAAAGUAGAAGGCGCUGUCA [Mat - Exclusion 3 - Mod of Salish D21] (puzzle: Exclusion 3) |  |  |  | 0.2 | 0.0609 | 0.057
